Key:
[1] = target: T1, human wild-type EGFR protein on the cell surface (human, UniProt P00533 25-1210); assay: FACS on CHOk1-EGFR cells
T1 construct: whole, on cells; Endogenous on A431, HEB, U87MG cells and normal human primary hepatocytes; transfected on CHOk1-EGFR cells; The cell is named under assay; also called A431; HEB
Protocol: The cells are washed twice with the HBSS buffer and are counted, and then the cells are diluted with the HBSS buffer to 2×10⁶ cells/ml, added with 1% goat serum blocking solution, with the percentage being the mass percentage, and incubated on ice for 30 minutes, and then centrifugally washed twice with the HBSS buffer. The collected cells are suspended to 2×10⁶ cells/mL with an FACS buffer (HBSS+1% BSA, with the percentage being the mass percentage), added to a 96-well FACS reaction plate at 100 μL/well, then added with 100 μL/well of the purified EGFRvIII antibody (samples to be tested) obtained in example 2, and incubated on ice for 2 hours. The plate is centrifugally washed twice with the FACS buffer, added with 100 μL/well of a fluorescence (Alexa 488) labeled secondary antibody (purchased from Invitrogen), and then incubated on ice for 1 hour. The plate is centrifugally washed 3 times with the FACS buffer, added with 100 μL/well of a fixing solution [4% (v/v) paraformaldehyde] for suspending the cells, and centrifugally washed twice with the FACS buffer after 10 minutes. The cells are suspended in 100 μL of the FACS buffer, and the results are detected and analyzed by FACS (FACS Calibur, purchased from BD). Data analysis is performed by using the software (CellQuest) to obtain the mean fluorescence intensity (MFI) of the cells. Data is further analyzed by using the software (GraphPad Prism5) to perform data fitting and calculate EC50. […] A431 cells (human epidermal cell cancer cell lines) have a large amount of wild-type EGFR protein expressed on the surface thereof. […] U87MG cells (human glioma cell lines) have a small amount of wild-type EGFR protein expressed on the surface thereof, while HEB cells (human glioma cell lines) have a high level of wild-type EGFR protein expression on the surface thereof.

[2] = target: T2, human EGFRvIII-hFc protein (human, UniProt P00533 25-645); assay: ELISA, EGFRvIII-hFc coated
T2 construct: extracellular domain; also called immunogen A; hFc-tagged EGFRvIII protein; not shown: human IgG Fc fragment (hFc) of the pCpC vector

[3] = target: T3, human EGFRvIII protein on the cell surface (human, UniProt P00533 25-1210); assay: FACS on CHOk1-EGFRvIII cells
T3 construct: whole, on cells; the cell line is named under assay; also called hEGFRvIII; U87MG-hEGFRvIII
Protocol: The desired cells are subjected to an expanded culture to 90% confluence in a T-75 cell culture flask; the medium is sucked out, and the cells are washed twice with a HBSS buffer (Hanks Balanced Salt Solution) (purchased from Invitrogen), and then treated with an enzyme-free cell dissociation solution (Versene solution: purchased from Life Technology) and collected. The cells are washed twice with the HBSS buffer and are counted, and then the cells are diluted with the HBSS buffer to 2×10⁶ cells/ml, added with 1% goat serum blocking solution, with the percentage being the mass percentage, and incubated on ice for 30 minutes, and then centrifugally washed twice with the HBSS buffer. The collected cells are suspended to 2×10⁶ cells/mL with an FACS buffer (HBSS+1% BSA, with the percentage being the mass percentage), added to a 96-well FACS reaction plate at 100 μL/well, then added with 100 μL/well of the purified EGFRvIII antibody (samples to be tested) obtained in example 2, and incubated on ice for 2 hours. The plate is centrifugally washed twice with the FACS buffer, added with 100 μL/well of a fluorescence (Alexa 488) labeled secondary antibody (purchased from Invitrogen), and then incubated on ice for 1 hour. The plate is centrifugally washed 3 times with the FACS buffer, added with 100 μL/well of a fixing solution [4% (v/v) paraformaldehyde] for suspending the cells, and centrifugally washed twice with the FACS buffer after 10 minutes. The cells are suspended in 100 μL of the FACS buffer, and the results are detected and analyzed by FACS (FACS Calibur, purchased from BD). Data analysis is performed by using the software (CellQuest) to obtain the mean fluorescence intensity (MFI) of the cells. Data is further analyzed by using the software (GraphPad Prism5) to perform data fitting and calculate EC50. […] A431 cells (human epidermal cell cancer cell lines) have a large amount of wild-type EGFR protein expressed on the surface thereof.

[4] = target: T2, human EGFRvIII-hFc protein; assay: ELISA, EGFRvIII-hFc coated; weak binding, maximum OD450 0.79 against 3.03 for wild type and 0.08 for hIgG
Protocol: The plate is incubated for 2 hours at 37° C., and then washed 3 times with the plate washing solution [PBS+0.01% (v/v) Tween20]. The plate is added with an HRP (horseradish peroxidase) labeled secondary antibody (purchased from Sigma), incubated at 37° C. for 2 hours, and then washed 3 times with the plate washing solution [PBS+0.01% (v/v) Tween20]. The plate is added with 100 μl of TMB substrate/well, incubated for 30 minutes at room temperature, and then added with 100 μl of stopping solution (1.0N HCl)/well. A450 nm value is read using an ELISA plate reader (SpectraMax 384plus, purchased from Molecular Device), and the results are shown in FIG. 11 and table 19.

B1: c75G7C6-4 (antibody, human IgG1, V domains shown)
VH: EVQLQQSGPELVKPGASVKIPCKASGYTFTDYNMDWVKQSHGKSLEWIGDINPNNGDTIYNQKFKGKATLTVDKSSSTAYMELRSLTSEDTAVYYCARGDYSGYYPVYYAMDYWGQGTSVTVSS
VL: ENVLTQSPAIMSASPGEKVTMTCRASSSVSSSYLHWYQQKSGASPKLWIFSTSNLAAGVPARFSGSGSGTSYSLTVSSVEAEDAATYYCQQYSGYPLTFGAGTKLELK
notes: Chimeric 75G7C6 with DG of heavy chain CDR3 mutated to SG; Human IgG1/kappa; also called mutant chimeric antibody DG/SG
Maximum mean fluorescence intensity [1]: 8970 MFI
Maximum OD450 value [2]: 0.79 OD450
EC50 [3]: 24 nM
Maximum mean fluorescence intensity [3]: 52600 MFI
EC50 [4]: 7.94 nM

Source: patent US20210032351A1 (XDCEXPLORER SHANGHAI, published 2021)
